{"source": "paper PMC3711457", "about": "“Control of DNA minor groove width and Fis protein binding by the purine 2-amino group” (Nucleic Acids Research, 2013)", "key": {"Fis-K90A [1]": {"molecular_target": "T1, Fis-K90A (UniProt P0A6R3 1-98, K90A)", "experiment": "EMSA; 50 ug/ml poly dI/dC; binding largely restored; EMSA with 50 ug/ml poly dI/dC as in ref 19; buffer, salt, pH and temperature not stated in the material", "details": "protein: recombinant; chain copies: 2; label: 32P; 27 bp duplex"}, "Fis (wild type) [2]": {"molecular_target": "T2, Fis (wild type) (UniProt P0A6R3 1-98)", "experiment": "EMSA; 50 ug/ml poly dI/dC; 60-fold better than F28; half-life 14 min; EMSA with 50 ug/ml poly dI/dC as in ref 19; buffer, salt, pH and temperature not stated in the material", "details": "protein: recombinant; chain copies: 2; label: 32P; 27 bp duplex"}, "Fis-K90A [3]": {"molecular_target": "T1, Fis-K90A", "experiment": "EMSA; 50 ug/ml poly dI/dC; EMSA with 50 ug/ml poly dI/dC as in ref 19; buffer, salt, pH and temperature not stated in the material", "details": "protein: recombinant; chain copies: 2; duplex"}, "Fis (wild type) [4]": {"molecular_target": "T2, Fis (wild type)", "experiment": "EMSA; 50 ug/ml poly dI/dC; EMSA with 50 ug/ml poly dI/dC as in ref 19; buffer, salt, pH and temperature not stated in the material", "details": "protein: recombinant; chain copies: 2; duplex"}, "Fis (wild type) [5]": {"molecular_target": "T2, Fis (wild type)", "experiment": "EMSA; 50 ug/ml poly dI/dC; 230-fold better than F29; half-life 5 min; EMSA with 50 ug/ml poly dI/dC as in ref 19; buffer, salt, pH and temperature not stated in the material", "details": "protein: recombinant; chain copies: 2; label: 32P; duplex"}, "[6]": {"molecular_target": "the molecule itself", "experiment": "crystal structure; Fis co-crystallized with DNA duplexes F28, F28-dI, F28-2AP and F29-dI; data collected at 100 K; molecular replacement with Fis-F1 (PDB 3IV5)"}, "Fis-K90A [7]": {"molecular_target": "T1, Fis-K90A", "experiment": "EMSA; 50 ug/ml poly dI/dC; EMSA with 50 ug/ml poly dI/dC as in ref 19; buffer, salt, pH and temperature not stated in the material", "details": "protein: recombinant; chain copies: 2; label: 32P; 27 bp duplex"}, "Fis (wild type) [8]": {"molecular_target": "T2, Fis (wild type)", "experiment": "EMSA; 50 ug/ml poly dI/dC; high-affinity reference, Kd in figure only; EMSA with 50 ug/ml poly dI/dC as in ref 19; buffer, salt, pH and temperature not stated in the material", "details": "protein: recombinant; chain copies: 2; label: 32P; 27 bp duplex"}, "Fis (wild type) [9]": {"molecular_target": "T2, Fis (wild type)", "experiment": "X-ray crystallography; 2.8 A; EMSA with 50 ug/ml poly dI/dC as in ref 19; buffer, salt, pH and temperature not stated in the material", "details": "protein: recombinant; chain copies: 2; label: 32P; duplex"}, "Fis (wild type) [10]": {"molecular_target": "T2, Fis (wild type)", "experiment": "X-ray crystallography; 2.7 A; EMSA with 50 ug/ml poly dI/dC as in ref 19; buffer, salt, pH and temperature not stated in the material", "details": "protein: recombinant; chain copies: 2; label: 32P; 27 bp duplex"}, "Fis-K90A [11]": {"molecular_target": "T1, Fis-K90A", "experiment": "EMSA; 50 ug/ml poly dI/dC; essentially abolished; EMSA with 50 ug/ml poly dI/dC as in ref 19; buffer, salt, pH and temperature not stated in the material", "details": "protein: recombinant; chain copies: 2; label: 32P; 27 bp duplex"}}}
{"binder": "F28-dI (dsDNA, inosine replaces the guanines of the three central G/C pairs (ICI), on both strands) DNA 1: AAATTTGTTTGAGCGTTGAGCAAATTT DNA 2: AAATTTGCTCAACGCTCAAACAAATTT", "values": [{"measurement": "binding result", "setting": "Fis-K90A [1]", "value": "binds"}, {"measurement": "Kd", "setting": "Fis (wild type) [2]", "value": "< 1", "unit": "nM"}]}
{"binder": "F30 (dsDNA) DNA 1: AAAGCGGTTTGAATTTTGAGCCGCTTT DNA 2: AAAGCGGCTCAAAATTCAAACCGCTTT", "values": [{"measurement": "binding signal", "setting": "Fis-K90A [3]", "value": 9, "unit": "fold worse than Fis-wt"}]}
{"binder": "F27 (dsDNA) DNA 1: AAATTTGTTTGAACTTTGAGCAAATTT DNA 2: AAATTTGCTCAAAGTTCAAACAAATTT", "values": [{"measurement": "binding signal", "setting": "Fis (wild type) [4]", "value": "~1 fold of F1 (indistinguishable)"}, {"measurement": "binding signal", "setting": "Fis-K90A [3]", "value": 10, "unit": "fold worse than Fis-wt"}]}
{"binder": "F29-dI (dsDNA, inosine replaces the guanines of the five central G/C pairs (IICIC), on both strands) DNA 1: AAATTTGTTTGGGCGCTGAGCAAATTT DNA 2: AAATTTGCTCAGCGCCCAAACAAATTT", "values": [{"measurement": "binding signal", "setting": "Fis (wild type) [5]", "value": "~8", "unit": "fold worse than F1"}]}
{"binder": "Fis protein (natural protein, also called Fis-wt; wild-type Fis) MFEQRVNSDVLTVSTVNSQDQVTQKPLRDSVKQALKNYFAQLNGQDVNDLYELVLAEVEQPLLDMVMQYTRGNQTRAALMMGINRGTLRKKLKKYGMN", "values": [{"measurement": "binding result", "setting": "[6]", "value": "binds"}]}
{"binder": "F1 (dsDNA) DNA 1: AAATTTGTTTGAATTTTGAGCAAATTT DNA 2: AAATTTGCTCAAAATTCAAACAAATTT", "values": [{"measurement": "binding signal", "setting": "Fis-K90A [7]", "value": "~1 fold of Fis-wt (indistinguishable)"}, {"measurement": "binding result", "setting": "Fis (wild type) [8]", "value": "binds"}]}
{"binder": "F28-2AP (dsDNA, 2-aminopurine in three central 2AP/T pairs (2T2), on both strands) DNA 1: AAATTTGTTTGAATATTGAGCAAATTT DNA 2: AAATTTGCTCAATATTCAAACAAATTT", "values": [{"measurement": "binding result", "setting": "Fis (wild type) [9]", "value": "binds"}]}
{"binder": "F28 (dsDNA) DNA 1: AAATTTGTTTGAGCGTTGAGCAAATTT DNA 2: AAATTTGCTCAACGCTCAAACAAATTT", "values": [{"measurement": "binding result", "setting": "Fis (wild type) [10]", "value": "binds"}, {"measurement": "binding result", "setting": "Fis-K90A [11]", "value": "no binding"}]}
